Results as given in US20120316071A1 (published 2012).

Columns and labels:
[1] = biological target: T1, rHuman EGF R/Fc Chimera, CF (R&D Systems Cat#344-ER) (human, UniProt P00533 25-645); experiment: ECL multispot (MSD) assay, antigen spotted on plate, Fab in solution; blank spot of this well 204
T1 construct: Bought recombinant protein; also called epidermal growth factor receptor

[2] = biological target: T2, rHuman HGF R/c-MET/Fc Chimera, CF (R&D Systems Cat#358-MT/CF) (human, UniProt P08581 25-932); experiment: as above
T2 construct: Bought recombinant protein; also called HGF R/Fc; hepatocyte growth factor receptor

[3] = biological target: T3, rHuman Notch-1/Fc Chimera, CF (R&D Systems Cat#3647-TK) (human); experiment: as above
T3 construct: Bought recombinant protein

[4] = biological target: T4, rHuman CD44/Fc Chimera, CF (R&D Systems Cat#3660-CD) (human, UniProt P16070 21-220); experiment: as above
T4 construct: Bought recombinant protein

[5] = biological target: T5, rHuman IGF-1 sR (insulin-like growth factor-1 soluble receptor), CF (R&D Systems Cat#391-GR) (human, UniProt P08069 31-932); experiment: as above
T5 construct: Bought recombinant soluble receptor

[6] = biological target: T6, rHuman P-Cadherin/Fc Chimera, CF (R&D Systems Cat#861-PC) (human, UniProt P22223 108-654); experiment: as above
T6 construct: Bought recombinant protein

[7] = biological target: T7, rHuman Erythropoietin R/Fc Chimera, CF (R&D Systems Cat#963-ER) (human, UniProt P19235 25-250); experiment: as above
T7 construct: Bought recombinant protein; also called EPO R; EPO R/Fc

[8] = biological target: T8, Recombinant Human DLL4 (R&D Systems Cat#1506-D4/CF) (human, UniProt Q9NR61 27-524); experiment: as above
T8 construct: Bought recombinant protein; also called delta-like protein 4; rHuman DLL4

[9] = biological target: T9, rHuman ErbB2/Fc Chimera, CF (R&D Systems Cat#1129-ER) (human, UniProt P04626 23-652); experiment: as above
T9 construct: Bought recombinant protein; also called human epidermal growth factor 2 receptor

[10] = biological target: T1, rHuman EGF R/Fc Chimera, CF (R&D …); experiment: ECL multispot (MSD) assay, antigen spotted on plate, Fab in solution; blank spot of this well 224
[11] = biological target: T2, rHuman HGF R/c-MET/Fc Chimera, CF (R&D …); experiment: as above
[12] = biological target: T3, rHuman Notch-1/Fc Chimera, CF (R&D …); experiment: as above
[13] = biological target: T4, rHuman CD44/Fc Chimera, CF (R&D Systems …); experiment: as above
[14] = biological target: T5, rHuman IGF-1 sR (insulin-like growth …); experiment: as above
[15] = biological target: T6, rHuman P-Cadherin/Fc Chimera, CF (R&D …); experiment: as above
[16] = biological target: T7, rHuman Erythropoietin R/Fc Chimera, CF …; experiment: as above
[17] = biological target: T8, Recombinant Human DLL4 (R&D Systems …); experiment: as above
[18] = biological target: T9, rHuman ErbB2/Fc Chimera, CF (R&D …); experiment: as above
[19] = biological target: T1, rHuman EGF R/Fc Chimera, CF (R&D …); experiment: ECL multispot (MSD) assay, antigen spotted on plate, Fab in solution; blank spot of this well 271
[20] = biological target: T2, rHuman HGF R/c-MET/Fc Chimera, CF (R&D …); experiment: as above
[21] = biological target: T3, rHuman Notch-1/Fc Chimera, CF (R&D …); experiment: as above
[22] = biological target: T4, rHuman CD44/Fc Chimera, CF (R&D Systems …); experiment: as above
[23] = biological target: T5, rHuman IGF-1 sR (insulin-like growth …); experiment: as above
[24] = biological target: T6, rHuman P-Cadherin/Fc Chimera, CF (R&D …); experiment: as above
[25] = biological target: T7, rHuman Erythropoietin R/Fc Chimera, CF …; experiment: as above
[26] = biological target: T8, Recombinant Human DLL4 (R&D Systems …); experiment: as above
[27] = biological target: T9, rHuman ErbB2/Fc Chimera, CF (R&D …); experiment: as above
[28] = biological target: rHuman HGF R/c-MET/Fc Chimera, CF (R&D Systems Cat#358-MT/CF) (human, UniProt P08581 25-932); experiment: ECL multispot (MSD) assay, antigen spotted on plate, Fab in solution; blank spot of this well 270
[29] = biological target: T10, rHuman Notch-1/Fc Chimera, CF (R&D Systems Cat#3647-TK) (human); experiment: as above
T10 chain: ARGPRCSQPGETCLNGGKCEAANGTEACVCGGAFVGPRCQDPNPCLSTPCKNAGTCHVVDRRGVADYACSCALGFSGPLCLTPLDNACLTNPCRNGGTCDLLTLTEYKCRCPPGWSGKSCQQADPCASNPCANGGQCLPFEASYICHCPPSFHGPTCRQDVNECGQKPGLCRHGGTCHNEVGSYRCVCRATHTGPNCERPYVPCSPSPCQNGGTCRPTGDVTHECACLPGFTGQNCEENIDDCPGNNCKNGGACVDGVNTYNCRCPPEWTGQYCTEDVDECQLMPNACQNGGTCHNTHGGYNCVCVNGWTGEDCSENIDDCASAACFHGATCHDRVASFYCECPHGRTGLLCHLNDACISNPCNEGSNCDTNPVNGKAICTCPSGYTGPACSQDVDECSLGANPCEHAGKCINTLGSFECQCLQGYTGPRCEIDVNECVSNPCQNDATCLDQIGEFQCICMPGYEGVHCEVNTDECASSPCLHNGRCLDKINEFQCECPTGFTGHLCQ

[30] = biological target: rHuman CD44/Fc Chimera, CF (R&D Systems Cat#3660-CD) (human, UniProt P16070 21-220); experiment: as above
[31] = biological target: rHuman P-Cadherin/Fc Chimera, CF (R&D Systems Cat#861-PC) (human, UniProt P22223 108-654); experiment: as above
[32] = biological target: rHuman Erythropoietin R/Fc Chimera, CF (R&D Systems Cat#963-ER) (human, UniProt P19235 25-250); experiment: as above
[33] = biological target: rHuman HGF R/c-MET/Fc Chimera, CF (R&D Systems Cat#358-MT/CF) (human, UniProt P08581 25-932); experiment: ECL Multispot (MSD), antigen spotted on plate, Fab in solution; blank spot 206
[34] = biological target: T11, rHuman Notch-1/Fc Chimera, CF (R&D Systems Cat#3647-TK) (human); experiment: as above
T11 chain: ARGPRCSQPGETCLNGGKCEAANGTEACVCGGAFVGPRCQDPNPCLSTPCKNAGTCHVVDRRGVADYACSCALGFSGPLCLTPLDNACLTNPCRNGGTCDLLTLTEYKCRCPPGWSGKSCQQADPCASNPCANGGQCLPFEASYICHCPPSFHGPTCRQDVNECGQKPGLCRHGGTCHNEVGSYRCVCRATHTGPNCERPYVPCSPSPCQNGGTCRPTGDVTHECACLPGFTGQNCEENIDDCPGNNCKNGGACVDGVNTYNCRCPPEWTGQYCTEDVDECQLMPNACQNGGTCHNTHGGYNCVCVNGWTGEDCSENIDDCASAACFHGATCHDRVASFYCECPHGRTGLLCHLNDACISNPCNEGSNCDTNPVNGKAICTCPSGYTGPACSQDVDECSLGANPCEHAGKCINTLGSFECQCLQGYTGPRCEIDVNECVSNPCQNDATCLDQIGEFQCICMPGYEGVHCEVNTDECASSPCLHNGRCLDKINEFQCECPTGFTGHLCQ

[35] = biological target: rHuman CD44/Fc Chimera, CF (R&D Systems Cat#3660-CD) (human, UniProt P16070 21-220); experiment: as above
[36] = biological target: rHuman P-Cadherin/Fc Chimera, CF (R&D Systems Cat#861-PC) (human, UniProt P22223 108-654); experiment: as above
[37] = biological target: rHuman Erythropoietin R/Fc Chimera, CF (R&D Systems Cat#963-ER) (human, UniProt P19235 25-250); experiment: as above

B1: Fab VH1-46_IGHD6-6*01_IGHJ1*01 S102A/S103P/S104F (APF) & L6_IGKJ1*01 (Fab, V domains shown)
VH: QVQLVQSGAEVKKPGASVKVSCKASGYTFTSYYMHWVRQAPGQGLEWMGIINPSGGSTSYAQKFQGRVTMTRDTSTSTVYMELSSLRSEDTAVYYCAREEYAPFSAEYFQHWGQGTLVTVSS
VL: not shown
notes: Fab made in E. coli (heavy chain in plasmid A with CH1, His6 and Flag tags; kappa light chain in plasmid C); also called APF / parent; H:APF & L:wt
ECL signal [1]: 237
ECL signal [2]: 272
ECL signal [3]: 334
ECL signal [4]: 96
ECL signal [5]: 197
ECL signal [6]: 208
ECL signal [7]: 329
ECL signal [8]: 2120
ECL signal [9]: 157
ECL signal [10]: 279
ECL signal [11]: 275
ECL signal [12]: 171
ECL signal [13]: 197
ECL signal [14]: 168
ECL signal [15]: 171
ECL signal [16]: 0
ECL signal [17]: 2830
ECL signal [18]: 149
ECL signal [19]: 272
ECL signal [20]: 306
ECL signal [21]: 257
ECL signal [22]: 189
ECL signal [23]: 241
ECL signal [24]: 297
ECL signal [25]: 304
ECL signal [26]: 3480
ECL signal [27]: 330

B2: Fab VH1-46_IGHD6-6*01_IGHJ1*01 S102A/S103P/S104F/H111F (APFF) & L6_IGKJ1*01 N93Y (Fab, V domains shown)
VH: QVQLVQSGAEVKKPGASVKVSCKASGYTFTSYYMHWVRQAPGQGLEWMGIINPSGGSTSYAQKFQGRVTMTRDTSTSTVYMELSSLRSEDTAVYYCAREEYAPFSAEYFQFWGQGTLVTVSS
VL: EIVLTQSPATLSLSPGERATLSCRASQSVSSYLAWYQQKPGQAPRLLIYDASNRATGIPARFSGSGSGTDFTLTISSLEPEDFAVYYCQQRSYWPPWTFGQGTKVEIKR
notes: Fab made in E. coli (heavy chain in plasmid A with CH1, His6 and Flag tags; kappa light chain in plasmid C); also called APFF / N93Y
ECL signal [28]: 380
ECL signal [29]: 453
ECL signal [30]: 333
ECL signal [31]: 499
ECL signal [32]: 541

B3: Fab VH1-46_IGHD6-6*01_IGHJ1*01 S102A/S103P/S104F/H111F (APFF) & L6_IGKJ1*01 N93S (Fab, V domains shown)
VH: QVQLVQSGAEVKKPGASVKVSCKASGYTFTSYYMHWVRQAPGQGLEWMGIINPSGGSTSYAQKFQGRVTMTRDTSTSTVYMELSSLRSEDTAVYYCAREEYAPFSAEYFQFWGQGTLVTVSS
VL: EIVLTQSPATLSLSPGERATLSCRASQSVSSYLAWYQQKPGQAPRLLIYDASNRATGIPARFSGSGSGTDFTLTISSLEPEDFAVYYCQQRSSWPPWTFGQGTKVEIKR
notes: also called APFF / N93S
ECL signal [33]: 328
ECL signal [34]: 345
ECL signal [35]: 346
ECL signal [36]: 321
ECL signal [37]: 420
